{"source": "paper PMC9960319", "origin": "cited, not measured here", "target": "intermediate-affinity IL-2 receptor (Homo sapiens) (UniProt P14784)", "sequence (P14784 27-240, chain 1 of 2)": "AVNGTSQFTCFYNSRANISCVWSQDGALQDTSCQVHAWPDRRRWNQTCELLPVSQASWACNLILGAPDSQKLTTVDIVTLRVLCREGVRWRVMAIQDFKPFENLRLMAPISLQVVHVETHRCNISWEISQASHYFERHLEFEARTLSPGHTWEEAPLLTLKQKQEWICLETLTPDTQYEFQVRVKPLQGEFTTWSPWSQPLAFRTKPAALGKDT", "sequence (P31785 23-262, chain 2 of 2, further chain)": "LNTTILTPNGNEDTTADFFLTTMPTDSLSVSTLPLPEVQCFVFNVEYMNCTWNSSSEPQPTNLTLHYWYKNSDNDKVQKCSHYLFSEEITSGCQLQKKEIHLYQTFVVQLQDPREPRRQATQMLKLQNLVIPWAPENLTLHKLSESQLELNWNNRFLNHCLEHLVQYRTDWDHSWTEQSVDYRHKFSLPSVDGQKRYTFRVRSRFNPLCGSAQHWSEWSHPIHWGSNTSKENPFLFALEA"}
{"substance": "IL-2 moiety (from UniProt P60568)", "values": [{"measurement": "Kd", "value": 40, "unit": "nM"}]}
